# Data: US20260035692, “METHOD FOR SCREENING FOR APTAMER BY SEQUENCING” (GeneMind Biosciences Co., Ltd., published 2026)
# B1: tagged SA-positive aptamer (GGCTAC tag) (ssDNA)
# DNA: GGCTACAGCAGCACAGAGGTCAGATGGACGCACCGATCGCAGGTTCCGAAATGACTACTTGGTTGCCTATGCGTGCTACCGTGAAGGCTAC
# B2: SA-positive aptamer reverse strand (ssDNA)
# DNA: TTCACGGTAGCACGCATAGGCAACCAAGTAGTCATTTCGGAACCTGCGATCGGTGCGTCCATCTGACCTCTGTGCTGCT
# modifications: [NONE]
# B3: 3RA positive aptamer sequence 2 (ssDNA)
# DNA: CGAAGTTCAGCACTCCACGCATAGCCCTCGGAGGTCTACGAGAATGCCTACAGCCCTGTGCCCTATGCGTGCTACCGTGAA
# B4: 3RA positive aptamer sequence 3 (ssDNA)
# DNA: CACGGTAGCACGCATAACGCCGAGTTCCATTATAAAGTCCGCGCCCGACTACCCCCGTTATGCGTGGAGTGCTGGACATGC
# B5: 3RA positive aptamer sequence 4 (ssDNA)
# DNA: AATGGTCCAGCACTCCACGCATAACGAATAGGTCCTAAACGAGGGGTCAGGGAAGTCGCCGGTTATGCGTGCTACCGTGAA
# B6: 3RA positive aptamer sequence 1 (ssDNA)
# DNA: TCACGGTAGCACGCATAGGGGAGGATTCCGACTAAGTTTCCGTCGCATGAGCGTTGCTATGCGTGGAGTGCTGAAGTTGGC
# Key:
# Settings in all cases: tags: Alexa Fluor 647 label (SA-alexa647); chain copies: 4
# streptavidin (SA) [1] = target: T1, streptavidin (SA) (UniProt P22629 P22629:25-183); test: flowcell clusters in mixture library; signal graded with 1.95-500 nM SA-alexa647, weak below 31 nM
# Method: (3) Into the four flow channels of the sequencing flowcell (L1, L2, L3, and L4 respectively), SA-alexa647 at concentrations of 500 nmol/L, 125 nmol/L, 31.25 nmol/L, and 1.95 nmol/L was introduced, respectively, and the flowcell was incubated for 30 minutes for in situ hybridization. After incubation, 300 μL of PBST was used to wash the channels to remove unreacted fluorescently labeled SA-alexa647.
# streptavidin (SA) [2] = target: T1, streptavidin (SA); test: 0 of 2808 (30% mix) and 2 of 575 (10% mix) target-bound clusters were reverse strand
# streptavidin (SA) [3] = target: T1, streptavidin (SA); test: NY selection: no signal with 500 nM SA alone
# Method: (3) After sequencing was completed, target protein SA at a concentration of 500 nmol/L and a combination of target proteins SA and 3RA at 500 nmol/L each were sequentially introduced into the flowcell, followed by incubation. After each incubation was completed, 300 μL of PBST was used to wash the channels. After washing was completed, a 640 nm laser was used for excitation, and the surface of the solid carrier was imaged to collect the corresponding emission signals. Before introducing the next target at each time, the channels were washed with 750 μL of NaOH to remove the previously bound target.
# T1 sequence (P22629 25-183, one chain of several): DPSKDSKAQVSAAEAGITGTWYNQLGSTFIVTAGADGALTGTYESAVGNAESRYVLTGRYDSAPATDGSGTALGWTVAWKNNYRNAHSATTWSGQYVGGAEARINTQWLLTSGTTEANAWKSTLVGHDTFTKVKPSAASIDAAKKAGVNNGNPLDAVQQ
Binder,binding result (streptavidin (SA) [3]),other results
B1,–,binding result (streptavidin (SA) [1]): binds
B2,–,binding result (streptavidin (SA) [2]): no binding
B3,no binding,–
B4,no binding,–
B5,no binding,–
B6,no binding,–
